Laboratory results: the supplement of paper PMC7877785
± gives the uncertainty stated by the source.

Experiment: self-splicing fitness, log relative to wild type (ln ratio); higher = more splicing; Tetrahymena group I intron in knt gene, E. coli kanamycin selection, DiMSum; sequences stand for … in CUCUCU…GGAGGGAAAAGUUAUCAGGCAUGCACCUGGUAGCUAGUCUUUAAACCAAUAGAUUGCAUCGGUUUAAAAGGCAAGACCGUCAAAUUGCGGGAAAGGGGUCAACAGCCGUUCAGUACCAAGUCUCAGGGGAAACUUUGAGAUGGCCUUGCAAAGGGUAUGGUAAUAAGCUGACGGACAUGGUCCUAACCACGCAGCCAAGUCCUAAGUCAACAGAUCUUCUGUUGAUAUGGAUGCAGUUCACAGACUAAAUGUCGGUCGGGGAAGAUGUAUUCUUCUCAUAAGAUAUAGUCGGACCUCUCCUUAAUGGGAGCUAGCGGAUGAAGUGAUGCAACACUGGAGCCGCUGGGAACUAAUUUGUAUGCGAAAGUAUAUUGAUUAGUUUUGGAGUACUCGUGGUCG
How it was run: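 Six replicate transformations of E. coli BL21(DE3) with a pET-22b(+) library were grown overnight at 37°C or 30°C. The library randomised all eight P1ex-region intron nucleotides, the intron lying in the knt kanamycin-resistance gene, and plates were LB agar with or without 25 μg/mL kanamycin plus 100 μg/mL carbenicillin, 50 μM IPTG and 0.2% rhamnose. Pooled colonies were amplicon-sequenced on an Illumina HiSeq 2500, and fitness is the DiMSum error-weighted combination of wild-type-normalised replicate fold changes, kanamycin versus none.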

Row | Sequence | self-splicing fitness (ln) (30 °C) | self-splicing fitness (ln) (37 °C)
1 | GCCGAGCAAUAUUACGUGAU | -1.01 ± 0.073 | -0.638 ± 0.088
2 | AAAUAGCAAUAUUACGUGAG | -1.19 ± 0.078 | -0.609 ± 0.11
3 | AAUUAGCAAUAUUACGAUCA | -0.335 ± 0.28 | -0.16 ± 0.22
4 | ACUAAGCAAUAUUACGUCCA | -1.54 ± 0.12 | -1.22 ± 0.16
5 | GAGGAGCAAUAUUACGUAUU | -3.47 ± 0.32 | 0.0104 ± 0.25
6 | UGUAAGCAAUAUUACGGUGA | -2.08 ± 0.11 | -0.909 ± 0.13
7 | GCCCAGCAAUAUUACGUCAG | -3.98 ± 0.2 | -2.82 ± 0.23
8 | UGUAAGCAAUAUUACGUAUC | -3.17 ± 0.23 | -2.13 ± 0.24
9 | AUUUAGCAAUAUUACGGUAC |  | -1.07 ± 0.33
10 | UUAGAGCAAUAUUACGAUGA | 0.174 ± 0.1 | 0.371 ± 0.14
11 | UUUUAGCAAUAUUACGAUGG | -1.32 ± 0.19 | -1.22 ± 0.2
12 | UCUUAGCAAUAUUACGUGAA | -1.9 ± 0.2 | -2.82 ± 0.43
13 | GGAAAGCAAUAUUACGAUUA | -0.527 ± 0.16 | 0.788 ± 0.16
14 | UCAAAGCAAUAUUACGCAAU | -5.01 ± 0.34 | -2.79 ± 0.21
15 | CAACAGCAAUAUUACGUACC | -2.7 ± 0.12 | -0.824 ± 0.12
16 | UAGAAGCAAUAUUACGGUAC | -3.25 ± 0.37 | 
17 | UACGAGCAAUAUUACGAUUG | -3.62 ± 0.25 | -0.584 ± 0.2
18 | CAGAAGCAAUAUUACGUAUU | -3.79 ± 0.23 | -2.28 ± 0.15
19 | UUGGAGCAAUAUUACGCUGU | -3.36 ± 0.41 | -2.35 ± 0.37
20 | AGACAGCAAUAUUACGUCCG | -0.314 ± 0.12 | -0.305 ± 0.15
21 | AUCUAGCAAUAUUACGAGGC |  | -2.69 ± 0.34
22 | CACAAGCAAUAUUACGACAG | 0.0654 ± 0.065 | 0.61 ± 0.083
23 | UAAAAGCAAUAUUACGCCGA | -1.16 ± 0.12 | -0.318 ± 0.14
24 | GGACAGCAAUAUUACGCGUC | -2.69 ± 0.22 | -2.78 ± 0.48
25 | CUAAAGCAAUAUUACGCCAA | -4.58 ± 0.32 | -3.1 ± 0.37

Row | Sequence | self-splicing fitness (ln) (30 °C) | self-splicing fitness (ln) (37 °C)
26 | ACUCAGCAAUAUUACGACAG | -1.94 ± 0.11 | -0.382 ± 0.12
27 | UAUCAGCAAUAUUACGCCCG | -0.133 ± 0.098 | -0.202 ± 0.13
28 | UCGAAGCAAUAUUACGUUAG | -1.25 ± 0.1 | -1.35 ± 0.13
29 | CGUCAGCAAUAUUACGAUUG | -0.506 ± 0.076 | -0.162 ± 0.084
30 | GAAAAGCAAUAUUACGCGCG | -0.276 ± 0.076 | -0.478 ± 0.11
31 | UGCGAGCAAUAUUACGUUGG |  | -1.27 ± 0.26
32 | GAAUAGCAAUAUUACGUUCC | -3.17 ± 0.32 | 
33 | CCAUAGCAAUAUUACGUUCC | -3.61 ± 0.39 | -2.52 ± 0.44
34 | ACGCAGCAAUAUUACGCCGA | -1.23 ± 0.099 | -0.977 ± 0.094
35 | CAAGAGCAAUAUUACGCCGG | -2 ± 0.15 | -1.35 ± 0.24
36 | CGCAAGCAAUAUUACGUCCA | -1.46 ± 0.089 | -0.939 ± 0.1
37 | GUCUAGCAAUAUUACGCAAC | -1.33 ± 0.087 | -0.643 ± 0.095
38 | GGAAAGCAAUAUUACGACCA | -0.87 ± 0.11 | -0.318 ± 0.14
39 | CAGCAGCAAUAUUACGCAUC | -2.71 ± 0.12 | -1.16 ± 0.1
40 | GCCGAGCAAUAUUACGGUCC | -3.18 ± 0.29 | -1.23 ± 0.33
41 | UGACAGCAAUAUUACGAGGG | -3.73 ± 0.44 | -2.11 ± 0.35
42 | UGCGAGCAAUAUUACGGUGA | -2.28 ± 0.18 | -1.49 ± 0.16
43 | GGGCAGCAAUAUUACGCGCG | -0.63 ± 0.13 | -0.682 ± 0.14
44 | AACAAGCAAUAUUACGUCCC | -0.608 ± 0.12 | -0.718 ± 0.17
45 | UGCAAGCAAUAUUACGCAAG | -2.59 ± 0.17 | -3.02 ± 0.32
46 | UGCUAGCAAUAUUACGGUUG | -0.971 ± 0.06 | -0.318 ± 0.082
47 | AGCUAGCAAUAUUACGCACA | -1.51 ± 0.21 | -0.817 ± 0.2
48 | AGCUAGCAAUAUUACGCGUG | -1.6 ± 0.088 | -1.53 ± 0.12
49 | UACGAGCAAUAUUACGAUAA | -2.9 ± 0.16 | -2.05 ± 0.16
